In US20210139548A1 (published 2021):
*1 amine or outer side, *2 acyl side, *3 side chain or, on linkers, in order; H or OH if unused. Side-chain parts run from the residue outwards. The star is where a group is joined. C18 diacid = O=C(O)CCCCCCCCCCCCCCCCC(=O)*; γGlu = O=C(O)[C@H](CCC(=O)[*:2])N[*:1]; Isovaleryl = CC(C)CC(=O)*; AEEA = NCCOCCOCC(=O)O

T1: human neuropeptide Y2 receptor (human, UniProt P49146 1-381)
T1 construct: whole, on cells; also called hNPY2 receptor; hNPY2-R
T1 sequence (looked up): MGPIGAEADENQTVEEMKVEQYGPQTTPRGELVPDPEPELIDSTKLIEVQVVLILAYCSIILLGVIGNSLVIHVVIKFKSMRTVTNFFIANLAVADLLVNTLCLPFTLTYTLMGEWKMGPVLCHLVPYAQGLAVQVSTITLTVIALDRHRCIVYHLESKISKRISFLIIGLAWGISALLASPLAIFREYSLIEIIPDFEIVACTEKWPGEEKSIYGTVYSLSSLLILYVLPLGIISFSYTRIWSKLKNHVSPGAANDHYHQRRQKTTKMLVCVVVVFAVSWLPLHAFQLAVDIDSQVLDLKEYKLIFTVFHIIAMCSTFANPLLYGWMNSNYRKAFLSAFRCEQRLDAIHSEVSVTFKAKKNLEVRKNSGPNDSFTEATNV


Target: T1, human neuropeptide Y2 receptor
Experiment: radioligand competition (125I-PYY(1-36)), hNPY2R membranes
How it was run: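 Commercial human Y2 receptor membranes (0.5 μg protein/well) were incubated with peptide for 2 h at room temperature in 50 mM HEPES, 5 mM MgCl₂, 1 mM CaCl₂, pH 7.4, with 0.2% ovalbumin. Bound radioligand was separated on PEI-soaked GF/C filters and counted by scintillation, and IC₅₀ came from nonlinear sigmoidal regression.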

Row | Binder | Ki [nM]
1 | Isovaleryl-APEK([AEEA-AEEA-γGlu-C18 diacid])PEEAASPEELQRYYVSTRHYYNWLTRQRY-NH2 (SMILES CC(C)CC(=O)N[C@@H](C)C(=O)N1CCC[C@H]1C(=O)N[C@@H](CCC(=O)O)C(=O)N[C@@H](CCCCNC(=O)COCCOCCNC(=O)COCCOCCNC(=O)CC[C@H](NC(=O)CCCCCCCCCCCCCCCCC(=O)O)C(=O)O)C(=O)N1CCC[C@H]1C(=O)N[C@@H](CCC(=O)O)C(=O)N[C@@H](CCC(=O)O)C(=O)N[C@@H](C)C(=O)N[C@@H](C)C(=O)N[C@@H](CO)C(=O)N1CCC[C@H]1C(=O)N[C@@H](CCC(=O)O)C(=O)N[C@@H](CCC(=O)O)C(=O)N[C@@H](CC(C)C)C(=O)N[C@@H](CCC(N)=O)C(=O)N[C@@H](CCCNC(=N)N)C(=O)N[C@@H](Cc1ccc(O)cc1)C(=O)N[C@@H](Cc1ccc(O)cc1)C(=O)N[C@H](C(=O)N[C@@H](CO)C(=O)N[C@H](C(=O)N[C@@H](CCCNC(=N)N)C(=O)N[C@@H](Cc1c[nH]cn1)C(=O)N[C@@H](Cc1ccc(O)cc1)C(=O)N[C@@H](Cc1ccc(O)cc1)C(=O)N[C@@H](CC(N)=O)C(=O)N[C@@H](Cc1c[nH]c2ccccc12)C(=O)N[C@@H](CC(C)C)C(=O)N[C@H](C(=O)N[C@@H](CCCNC(=N)N)C(=O)N[C@@H](CCC(N)=O)C(=O)N[C@@H](CCCNC(=N)N)C(=O)N[C@@H](Cc1ccc(O)cc1)C(N)=O)[C@@H](C)O)[C@@H](C)O)C(C)C) [Compound 42] | 5.92
2 | Isovaleryl-APEK([AEEA-AEEA-γGlu-C18 diacid])PEEEASPESLQRYYVSLRHYYNWLTRQRY-NH2 (SMILES CC(C)CC(=O)N[C@@H](C)C(=O)N1CCC[C@H]1C(=O)N[C@@H](CCC(=O)O)C(=O)N[C@@H](CCCCNC(=O)COCCOCCNC(=O)COCCOCCNC(=O)CC[C@H](NC(=O)CCCCCCCCCCCCCCCCC(=O)O)C(=O)O)C(=O)N1CCC[C@H]1C(=O)N[C@@H](CCC(=O)O)C(=O)N[C@@H](CCC(=O)O)C(=O)N[C@@H](CCC(=O)O)C(=O)N[C@@H](C)C(=O)N[C@@H](CO)C(=O)N1CCC[C@H]1C(=O)N[C@@H](CCC(=O)O)C(=O)N[C@@H](CO)C(=O)N[C@@H](CC(C)C)C(=O)N[C@@H](CCC(N)=O)C(=O)N[C@@H](CCCNC(=N)N)C(=O)N[C@@H](Cc1ccc(O)cc1)C(=O)N[C@@H](Cc1ccc(O)cc1)C(=O)N[C@H](C(=O)N[C@@H](CO)C(=O)N[C@@H](CC(C)C)C(=O)N[C@@H](CCCNC(=N)N)C(=O)N[C@@H](Cc1c[nH]cn1)C(=O)N[C@@H](Cc1ccc(O)cc1)C(=O)N[C@@H](Cc1ccc(O)cc1)C(=O)N[C@@H](CC(N)=O)C(=O)N[C@@H](Cc1c[nH]c2ccccc12)C(=O)N[C@@H](CC(C)C)C(=O)N[C@H](C(=O)N[C@@H](CCCNC(=N)N)C(=O)N[C@@H](CCC(N)=O)C(=O)N[C@@H](CCCNC(=N)N)C(=O)N[C@@H](Cc1ccc(O)cc1)C(N)=O)[C@@H](C)O)C(C)C) [Compound 45] | 3.97
3 | Isovaleryl-APEK([AEEA-AEEA-γGlu-C18 diacid])PEEEASPEELQRYYVSLRHYYNWITRQRY-NH2 (SMILES CC[C@H](C)[C@H](NC(=O)[C@H](Cc1c[nH]c2ccccc12)NC(=O)[C@H](CC(N)=O)NC(=O)[C@H](Cc1ccc(O)cc1)NC(=O)[C@H](Cc1ccc(O)cc1)NC(=O)[C@H](Cc1c[nH]cn1)NC(=O)[C@H](CCCNC(=N)N)NC(=O)[C@H](CC(C)C)NC(=O)[C@H](CO)NC(=O)[C@@H](NC(=O)[C@H](Cc1ccc(O)cc1)NC(=O)[C@H](Cc1ccc(O)cc1)NC(=O)[C@H](CCCNC(=N)N)NC(=O)[C@H](CCC(N)=O)NC(=O)[C@H](CC(C)C)NC(=O)[C@H](CCC(=O)O)NC(=O)[C@H](CCC(=O)O)NC(=O)[C@@H]1CCCN1C(=O)[C@H](CO)NC(=O)[C@H](C)NC(=O)[C@H](CCC(=O)O)NC(=O)[C@H](CCC(=O)O)NC(=O)[C@H](CCC(=O)O)NC(=O)[C@@H]1CCCN1C(=O)[C@H](CCCCNC(=O)COCCOCCNC(=O)COCCOCCNC(=O)CC[C@H](NC(=O)CCCCCCCCCCCCCCCCC(=O)O)C(=O)O)NC(=O)[C@H](CCC(=O)O)NC(=O)[C@@H]1CCCN1C(=O)[C@H](C)NC(=O)CC(C)C)C(C)C)C(=O)N[C@H](C(=O)N[C@@H](CCCNC(=N)N)C(=O)N[C@@H](CCC(N)=O)C(=O)N[C@@H](CCCNC(=N)N)C(=O)N[C@@H](Cc1ccc(O)cc1)C(N)=O)[C@@H](C)O) [Compound 44] | 4.44
4 | Isovaleryl-APEK([AEEA-AEEA-γGlu-C18 diacid])PEEDTEPEELQRYYVSLRHYYNWLTRQRY-NH2 (SMILES CC(C)CC(=O)N[C@@H](C)C(=O)N1CCC[C@H]1C(=O)N[C@@H](CCC(=O)O)C(=O)N[C@@H](CCCCNC(=O)COCCOCCNC(=O)COCCOCCNC(=O)CC[C@H](NC(=O)CCCCCCCCCCCCCCCCC(=O)O)C(=O)O)C(=O)N1CCC[C@H]1C(=O)N[C@@H](CCC(=O)O)C(=O)N[C@@H](CCC(=O)O)C(=O)N[C@@H](CC(=O)O)C(=O)N[C@H](C(=O)N[C@@H](CCC(=O)O)C(=O)N1CCC[C@H]1C(=O)N[C@@H](CCC(=O)O)C(=O)N[C@@H](CCC(=O)O)C(=O)N[C@@H](CC(C)C)C(=O)N[C@@H](CCC(N)=O)C(=O)N[C@@H](CCCNC(=N)N)C(=O)N[C@@H](Cc1ccc(O)cc1)C(=O)N[C@@H](Cc1ccc(O)cc1)C(=O)N[C@H](C(=O)N[C@@H](CO)C(=O)N[C@@H](CC(C)C)C(=O)N[C@@H](CCCNC(=N)N)C(=O)N[C@@H](Cc1c[nH]cn1)C(=O)N[C@@H](Cc1ccc(O)cc1)C(=O)N[C@@H](Cc1ccc(O)cc1)C(=O)N[C@@H](CC(N)=O)C(=O)N[C@@H](Cc1c[nH]c2ccccc12)C(=O)N[C@@H](CC(C)C)C(=O)N[C@H](C(=O)N[C@@H](CCCNC(=N)N)C(=O)N[C@@H](CCC(N)=O)C(=O)N[C@@H](CCCNC(=N)N)C(=O)N[C@@H](Cc1ccc(O)cc1)C(N)=O)[C@@H](C)O)C(C)C)[C@@H](C)O) [Compound 48] | 38.9

These reach a lower Ki. Values come first.

Row | Ki [nM] | Binder
5 | 0.4 | Isovaleryl-APEK([AEEA-AEEA-γGlu-C18 diacid])PEAPASPEELQRYYVSLRHYYNWLTRQRY-NH2 (SMILES CC(C)CC(=O)N[C@@H](C)C(=O)N1CCC[C@H]1C(=O)N[C@@H](CCC(=O)O)C(=O)N[C@@H](CCCCNC(=O)COCCOCCNC(=O)COCCOCCNC(=O)CC[C@H](NC(=O)CCCCCCCCCCCCCCCCC(=O)O)C(=O)O)C(=O)N1CCC[C@H]1C(=O)N[C@@H](CCC(=O)O)C(=O)N[C@@H](C)C(=O)N1CCC[C@H]1C(=O)N[C@@H](C)C(=O)N[C@@H](CO)C(=O)N1CCC[C@H]1C(=O)N[C@@H](CCC(=O)O)C(=O)N[C@@H](CCC(=O)O)C(=O)N[C@@H](CC(C)C)C(=O)N[C@@H](CCC(N)=O)C(=O)N[C@@H](CCCNC(=N)N)C(=O)N[C@@H](Cc1ccc(O)cc1)C(=O)N[C@@H](Cc1ccc(O)cc1)C(=O)N[C@H](C(=O)N[C@@H](CO)C(=O)N[C@@H](CC(C)C)C(=O)N[C@@H](CCCNC(=N)N)C(=O)N[C@@H](Cc1c[nH]cn1)C(=O)N[C@@H](Cc1ccc(O)cc1)C(=O)N[C@@H](Cc1ccc(O)cc1)C(=O)N[C@@H](CC(N)=O)C(=O)N[C@@H](Cc1c[nH]c2ccccc12)C(=O)N[C@@H](CC(C)C)C(=O)N[C@H](C(=O)N[C@@H](CCCNC(=N)N)C(=O)N[C@@H](CCC(N)=O)C(=O)N[C@@H](CCCNC(=N)N)C(=O)N[C@@H](Cc1ccc(O)cc1)C(N)=O)[C@@H](C)O)C(C)C) [Compound 43]
6 | 0.42 | Isovaleryl-APEK([AEEA-AEEA-γGlu-C18 diacid])PPADASPEELQRYYVSLRHYYNWLTRQRY-NH2 (SMILES CC(C)CC(=O)N[C@@H](C)C(=O)N1CCC[C@H]1C(=O)N[C@@H](CCC(=O)O)C(=O)N[C@@H](CCCCNC(=O)COCCOCCNC(=O)COCCOCCNC(=O)CC[C@H](NC(=O)CCCCCCCCCCCCCCCCC(=O)O)C(=O)O)C(=O)N1CCC[C@H]1C(=O)N1CCC[C@H]1C(=O)N[C@@H](C)C(=O)N[C@@H](CC(=O)O)C(=O)N[C@@H](C)C(=O)N[C@@H](CO)C(=O)N1CCC[C@H]1C(=O)N[C@@H](CCC(=O)O)C(=O)N[C@@H](CCC(=O)O)C(=O)N[C@@H](CC(C)C)C(=O)N[C@@H](CCC(N)=O)C(=O)N[C@@H](CCCNC(=N)N)C(=O)N[C@@H](Cc1ccc(O)cc1)C(=O)N[C@@H](Cc1ccc(O)cc1)C(=O)N[C@H](C(=O)N[C@@H](CO)C(=O)N[C@@H](CC(C)C)C(=O)N[C@@H](CCCNC(=N)N)C(=O)N[C@@H](Cc1c[nH]cn1)C(=O)N[C@@H](Cc1ccc(O)cc1)C(=O)N[C@@H](Cc1ccc(O)cc1)C(=O)N[C@@H](CC(N)=O)C(=O)N[C@@H](Cc1c[nH]c2ccccc12)C(=O)N[C@@H](CC(C)C)C(=O)N[C@H](C(=O)N[C@@H](CCCNC(=N)N)C(=O)N[C@@H](CCC(N)=O)C(=O)N[C@@H](CCCNC(=N)N)C(=O)N[C@@H](Cc1ccc(O)cc1)C(N)=O)[C@@H](C)O)C(C)C) [Compound 47]
